Reference: the supplement of paper PMC7125110
± gives the standard error. This sample holds only a part of the variants without activity.

B1: glmS ribozyme (parent)
chain: AUAAAAGCGCCAGAACUACAGAAAUGUAGUUGACGAGGAGGAGGUUUAUCGAAUUUUCGGCGGAUGCCUCCAAA

What was measured:
Conditions in all cases: with glucosamine-6-phosphate
glucosamine-6-phosphate [1] = variants of: B1; assay: self-cleavage kobs at 40 uM GlcN6P; higher = faster cleavage; RNA array
Procedure, shortened: (§1)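 Using a hybridised Cy3 probe at 37 °C, barcoded ribozyme variants transcribed in situ by E. coli RNA polymerase on sequenced MiSeq chips were monitored across tiles imaged over ~14 h. The flow contained glucosamine-6-phosphate from 40 μM to 10 mM in HEPES/KCl/Mg(OAc)2 buffer. Signals were normalised to baseline and to non-cleaving reference variants before per-tile medians were fit to one- or two-exponential decays to yield kobs. Weighted Michaelis–Menten fits across concentrations gave kcat and KM.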

glucosamine-6-phosphate [2] = variants of: B1; assay: self-cleavage kobs at 160 uM GlcN6P; higher = faster cleavage; RNA array
Procedure, shortened: as §1

glucosamine-6-phosphate [3] = variants of: B1; assay: self-cleavage kobs at 640 uM GlcN6P; higher = faster cleavage; RNA array
Procedure, shortened: as §1

glucosamine-6-phosphate [4] = variants of: B1; assay: self-cleavage kobs at 2500 uM GlcN6P; higher = faster cleavage; RNA array
Procedure, shortened: as §1

glucosamine-6-phosphate [5] = variants of: B1; assay: self-cleavage kobs at 10000 uM GlcN6P; higher = faster cleavage; RNA array
Procedure, shortened: as §1

Row | Variant | self-cleavage kobs at 40 uM GlcN6P (glucosamine-6-phosphate [1]) [s⁻¹] | self-cleavage kobs at 160 uM GlcN6P (glucosamine-6-phosphate [2]) [s⁻¹] | self-cleavage kobs at 640 uM GlcN6P (glucosamine-6-phosphate [3]) [s⁻¹] | self-cleavage kobs at 2500 uM GlcN6P (glucosamine-6-phosphate [4]) [s⁻¹] | self-cleavage kobs at 10000 uM GlcN6P (glucosamine-6-phosphate [5]) [s⁻¹]
1 | AUAAAAGCGCCAGAACUACAGAAAUGUAGUUGAUGAGGAGGAGGUUUAUCUAAUUUUCGGCGGAUGCCUCCAAA [C34U G51U] | < 1e-05 | < 1e-05 | < 1e-05 | – | –
2 | AUAAAAGCGCCAGAACUACAGAAAUGUAGUUGAUGAGGAGGAGGUUUAUCGAAUUUUCGUCGGAUGCCUCCAAA [C34U G60U] | < 1e-05 | < 1e-05 | < 1e-05 | < 1e-05 | < 1e-05
3 | AUAAAAGCGCCAGAACUACAGAAAUGUAGUUGAUGAGGAGAAGGUUUAUUGAAUUUUCGGCGGAUGCUUCCAAA [C34U G41A C50U C68U] | < 1e-05 | – | – | < 1e-05 | –
4 | AUAAAAGCGCCAGAACUACAGAAAUGUAGUUGAUGAGGAUGAGGUUUAUUGAAUUUUCGGCGGAUGCCUCCAAA [C34U G40U C50U] | < 1e-05 | – | < 1e-05 | – | < 1e-05
5 | AUAAAAGCGCCAGAACUACAGAAAUGUAGUUGAUGAGGAGGAGGUUUAUCGAAUUUCUGGCGGAUGCCUCCAAA [C34U U57C C58U] | < 1e-05 | – | – | < 1e-05 | < 1e-05
6 | AUAAAAGCGCCAGAACUACAGAAAUGUAGUUGAUGAGGAGGAGGUUUAUCUAACUUGCGGCGGAUGCCUCCAAA [C34U G51U U54C U57G] | < 1e-05 | – | – | < 1e-05 | –
7 | AUAAAAGCGCCAGAACUACAGAAAUGUAGUUGACAAGGAGGAGGUUUAUGGAAUUUUCGGCGGAUGCCUCUAAA [G35A C50G C71U] | 0.000138 ± 3.5e-05 | – | – | 8.9e-05 ± 3.1e-05 | 0.000191 ± 3.6e-05
8 | AUAAAAGCGCCAGAACUACAGAAAUGUAGUUGAUGAGGAGGAGGUUUAUCGAAUUUUCAGCGGAUGCCUCCAAA [C34U G59A] | < 1e-05 | – | < 1e-05 | < 1e-05 | –
9 | AUAAAAGCGCCAGAACUACAGAAAUGUAGUUGAUGAGGAGAAGGUUUAUCGAAUUUUCGGCGGAUGCAUCCAAA [C34U G41A C68A] | < 1e-05 | – | – | – | < 1e-05
10 | AUAAAAGCGCCAGAACUACAGAAAUGUAGUUGACAAGGAGGAGGUUUAUCGAAUUUUCGGGGGAGGACGCCAAA [G35A C61G U65G C67A U69G] | 6.66e-05 ± 2.3e-05 | – | – | – | –
11 | AUAAAAGCGCCAGAACUACAGAAAUGUAGUUGACAAGGAGGAGGUUUAUAAAAUUUUCGGCGGAUGCCUCCAAA [G35A C50A G51A] | < 1e-05 | – | < 1e-05 | < 1e-05 | –
12 | AUAAAAGCGCCAGAACUACAGAAAUGUAGUUGACAAGGAGGAGGUUUAUCGACUUUUCGGCGGAUGCCUCCAAA [G35A A53C] | < 1e-05 | < 1e-05 | < 1e-05 | – | < 1e-05
13 | AUAAAAGCGCCAGAACUACAGAAAUGUAGUUGACAAGGAGGAGGUUUAUCGAAUUUUCGGCGGAUGCCUUCAAA [G35A C70U] | < 1e-05 | < 1e-05 | < 1e-05 | < 1e-05 | < 1e-05
14 | AUAAAAGCGCCAGAACUACAGAAAUGUAGUUGAUGAGGAGGAGGUUUAUCGAAUCUUCGGCGGAUGCCUCCAAA [C34U U55C] | < 1e-05 | < 1e-05 | < 1e-05 | < 1e-05 | < 1e-05
15 | AUAAAAGCGCCAGAACUACAGAAAUGUAGUUGACAAGGAGGAGGUUUUUCGAAUUUUCGGCGGAUGCCUCUAAA [G35A A48U C71U] | < 1e-05 | – | – | – | –
16 | AUAAAAGCGCCAGAACUACAGAAAUGUAGUUGACAAGGAGGAGGUUUCUCGAAUGUUCGGCGGAUGCCUCCAAA [G35A A48C U55G] | < 1e-05 | – | – | – | –
17 | AUAAAAGCGCCAGAACUACAGAAAUGUAGUUGAUGAGGAGGAGGUUUAUCGAAUUAUCGGCGGAUGCCUCCAAA [C34U U56A] | < 1e-05 | < 1e-05 | < 1e-05 | < 1e-05 | –
18 | AUAAAAGCGCCAGAACUACAGAAAUGUAGUUGAUGAGGAUGAGGUUUAUCGAAUUUUCGGCGGAUGGCUCCAAA [C34U G40U C67G] | < 1e-05 | – | – | < 1e-05 | < 1e-05
19 | AUAAAAGCGCCAGAACUACAGAAAUGUAGUUGAUGAGGAGGAGGUUUAUCGAAUUUUCGGCGGAUGCCACCAAA [C34U U69A] | 0.000116 ± 2.4e-05 | – | 0.00034 ± 0.00012 | – | –
20 | AUAAAAGCGCCAGAACUACAGAAAUGUAGUUGAUGAGGAUGAGGUUUAUCGAAUUUUCGGCGGAUGCCUCCAAA [C34U G40U] | < 1e-05 | < 1e-05 | – | < 1e-05 | < 1e-05
21 | AUAAAAGCGCCAGAACUACAGAAAUGUAGUUGAUGAGGAGGAGGUUUAUCGAAUUUUCGGCGGAUUCCUCCAAA [C34U G66U] | < 1e-05 | < 1e-05 | – | – | < 1e-05
22 | AUAAAAGCGCCAGAACUACAGAAAUGUAGUUGAUGAAGAGGAGGUUUAUCGAAUUUUCGGCGGAUGCCUCCAAA [C34U G37A] | < 1e-05 | – | – | < 1e-05 | < 1e-05
23 | AUAAAAGCGCCAGAACUACAGAAAUGUAGUUGAUGAGGAGGAGGUUUAUCGAAUUUUCGGCGGAAGCCUCCAAA [C34U U65A] | < 1e-05 | < 1e-05 | < 1e-05 | – | < 1e-05
24 | AUAAAAGCGCCAGAACUACAGAAAUGUAGUUGAUGAGGAGGAGGUUUAUCGAAUUUUCGGCGGACGCCUCCAAA [C34U U65C] | < 1e-05 | < 1e-05 | < 1e-05 | < 1e-05 | < 1e-05
